Reference: patent US20080248054

Target: Jun kinase JNK1, Q91Y86
Sequence (Q91Y86 whole entry): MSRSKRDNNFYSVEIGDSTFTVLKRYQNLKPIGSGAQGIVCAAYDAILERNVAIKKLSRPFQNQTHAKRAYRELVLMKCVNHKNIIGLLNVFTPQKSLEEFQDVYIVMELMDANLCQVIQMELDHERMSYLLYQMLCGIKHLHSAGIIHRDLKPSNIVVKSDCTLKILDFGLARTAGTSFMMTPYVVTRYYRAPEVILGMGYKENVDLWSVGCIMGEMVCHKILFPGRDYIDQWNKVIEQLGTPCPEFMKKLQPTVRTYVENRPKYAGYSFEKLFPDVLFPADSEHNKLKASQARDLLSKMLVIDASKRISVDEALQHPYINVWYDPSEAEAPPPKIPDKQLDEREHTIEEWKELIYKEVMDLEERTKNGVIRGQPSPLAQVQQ

B1: murine MINK (Misshapen/NIKs-related kinase) (protein)
chain: MGDPAPARSLDDIDLSALRDPAGIFELVEVVGNGTYGQVYKGRHVKTGQLAAIKVMDVTEDEEEEIKQEINMLKKYSHHRNIATYYGAFIKKSPPGNDDQLWLVMEFCGAGSVTDLVKNTKGNALKEDCIAYICREILRGLAHLHAHKVIHRDIKGQNVLLTENAEVKLVDFGVSAQLDRTVGRRNTFIGTPYWMAPEVIACDENPDATYDYRSDIWSLGITAIEMAEGAPPLCDMHPMRALFLIPRNPPPRLKSKKWSKKFTDFIDTCLIKTYLSRPPTEQLLKFPFIRDQPTERQVRIQLKDHIDRSRKKRGEKEETEYEYSGSEEEDDSHGEEGEPSSIMNVPGESTLRREFLRLQQENKSNSEALKQQQQLQQQQQRDPEAHIKHLLHQRQRRIEEQKEERRRVEEQQRREREQRKLQEKEQQRRLEDMQALRREEERRQAEREQEYKRKQLEEQRQSERLQRQLQQEHAYLKSLQQQQQQQQLQKQQQQQQQILPGDRKPLYHYGRGINPADKPAWAREVEERARMNKQQNSPLAKRSQAGAGPEPPISQASPSPPGPLSQTPPMQRPVEPQEGPHKSLVAHRVPLKPYAAPVPRSQSLQDQPTRNLAAFPASHDPDPAAVPTPTATPSARGAVIRQNSDPTSEGPGPSPNPPSWVRPDNEAPPKVPQRTSSIATALNTSGAGGSRPAQAVRASNPDLRRSDPGWERSDSVLPASHGHLPQAGSLERNRNRVGASTKLDSSPVLSPGNKAKPEDHRSRPGRPADFVLLKERTLDEAPKPPKKAMDYSSSSEEVESSEEEEEEGDGEPSEGSRDTPGGRSDGDTDSVTTMVVHDVEEISGTQPSYGGGTMVVQRTPEEERSLLLADSNGYTNLPDVVQPSHSPTENSKGQSPPTKDGGSDYQSRGLVKAPGKSSFTMFVDLGIYQPGGSGDTIPITALVGGEGGRLDQLQFDVRKGSVVNVNPTNTRAHSETPEIRKYKKRFNSEILCAALWGVNLLVGTENGLMLLDRSGQGKVYGLIGRRRFQQMDVLEGLNLLITISGKRNKLRVYYLSWLRNKILHNDPEVEKKQGWTTVGDMEGCGHYRVVKYERIKFLVIALKNSVEVYAWAPKPYHKFMAFKSFADLPHRPLLVDLTVEEGQRLKVIYGSSAGFHAVDVDSGNSYDIYIPVHIQSQITPHAIIFLPNTDGMEMLLCYEDEGVYVNTYGRIIKDVVLQWGEMPTSVAYICSNQIMGWGEKAIEIRSVETGHLDGVFMHKRAQRLKFLCERNDKVFFASVRSGGSSQVYFMTLNRNCIMNW
levels of phosphorylated JNK in DP thymocytes after CD3/CD28 ligation (Western blot, anti-phospho-JNK1): MINK-deficient DP thymocytes express markedly reduced levels of phosphorylated JNK compared with control mice after CD3/CD28 ligation
